Biological target: endogenous MDM2 of SH-SY5Y cells (human (endogenous in SH-SY5Y)) (UniProt Q00987)
Test: AlphaScreen or HTRF; AlphaLISA of extracts of SH-SY5Y cells (MG132), endogenous proteins; D1V2Z-CaptSure acceptor beads and biotinylated HT7 on donor beads; background from Tau-KO SH-SY5Y cells

endogenous MDM2 of SH-SY5Y cells (human (endogenous in SH-SY5Y)), sequence (Q00987 whole entry): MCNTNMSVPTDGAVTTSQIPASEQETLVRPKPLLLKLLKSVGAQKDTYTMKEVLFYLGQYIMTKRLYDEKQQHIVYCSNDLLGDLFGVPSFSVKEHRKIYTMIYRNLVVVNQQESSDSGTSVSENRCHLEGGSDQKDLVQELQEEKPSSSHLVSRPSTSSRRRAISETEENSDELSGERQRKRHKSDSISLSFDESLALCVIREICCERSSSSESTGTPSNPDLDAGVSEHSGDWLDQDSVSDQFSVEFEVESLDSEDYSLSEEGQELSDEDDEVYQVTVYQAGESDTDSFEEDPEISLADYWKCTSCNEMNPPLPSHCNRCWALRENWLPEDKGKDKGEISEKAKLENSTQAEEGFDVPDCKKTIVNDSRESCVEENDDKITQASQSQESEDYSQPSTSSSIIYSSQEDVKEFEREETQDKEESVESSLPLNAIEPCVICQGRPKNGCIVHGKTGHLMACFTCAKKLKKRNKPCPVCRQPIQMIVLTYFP

AlphaLISA signal, fold over background of Tau-KO SH-SY5Y cells: 2.7 fold
Substance: endogenous Tau of SH-SY5Y cells (from UniProt P10636 1-758) (natural protein)
